Test results published in patent US20040180389A1.

Target: murine GM-CSF receptor (on FDC-P1 cells) (murine) (UniProt Q00941)
Test: cell-based or functional assay

UniProt Q00941, sequence (Q00941 30-388, chain 1 of 2): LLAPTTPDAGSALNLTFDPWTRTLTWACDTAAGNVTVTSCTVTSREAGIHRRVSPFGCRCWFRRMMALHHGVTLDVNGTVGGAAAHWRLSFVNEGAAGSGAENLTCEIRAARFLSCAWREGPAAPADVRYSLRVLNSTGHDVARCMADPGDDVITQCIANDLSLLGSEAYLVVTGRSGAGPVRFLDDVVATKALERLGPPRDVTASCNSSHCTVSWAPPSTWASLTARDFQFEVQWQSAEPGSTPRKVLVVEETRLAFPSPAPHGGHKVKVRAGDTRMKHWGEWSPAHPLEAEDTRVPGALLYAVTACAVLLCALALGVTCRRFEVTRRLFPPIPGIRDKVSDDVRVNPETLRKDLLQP
UniProt Q00941, sequence (P26955 23-896, chain 2 of 2, further chain): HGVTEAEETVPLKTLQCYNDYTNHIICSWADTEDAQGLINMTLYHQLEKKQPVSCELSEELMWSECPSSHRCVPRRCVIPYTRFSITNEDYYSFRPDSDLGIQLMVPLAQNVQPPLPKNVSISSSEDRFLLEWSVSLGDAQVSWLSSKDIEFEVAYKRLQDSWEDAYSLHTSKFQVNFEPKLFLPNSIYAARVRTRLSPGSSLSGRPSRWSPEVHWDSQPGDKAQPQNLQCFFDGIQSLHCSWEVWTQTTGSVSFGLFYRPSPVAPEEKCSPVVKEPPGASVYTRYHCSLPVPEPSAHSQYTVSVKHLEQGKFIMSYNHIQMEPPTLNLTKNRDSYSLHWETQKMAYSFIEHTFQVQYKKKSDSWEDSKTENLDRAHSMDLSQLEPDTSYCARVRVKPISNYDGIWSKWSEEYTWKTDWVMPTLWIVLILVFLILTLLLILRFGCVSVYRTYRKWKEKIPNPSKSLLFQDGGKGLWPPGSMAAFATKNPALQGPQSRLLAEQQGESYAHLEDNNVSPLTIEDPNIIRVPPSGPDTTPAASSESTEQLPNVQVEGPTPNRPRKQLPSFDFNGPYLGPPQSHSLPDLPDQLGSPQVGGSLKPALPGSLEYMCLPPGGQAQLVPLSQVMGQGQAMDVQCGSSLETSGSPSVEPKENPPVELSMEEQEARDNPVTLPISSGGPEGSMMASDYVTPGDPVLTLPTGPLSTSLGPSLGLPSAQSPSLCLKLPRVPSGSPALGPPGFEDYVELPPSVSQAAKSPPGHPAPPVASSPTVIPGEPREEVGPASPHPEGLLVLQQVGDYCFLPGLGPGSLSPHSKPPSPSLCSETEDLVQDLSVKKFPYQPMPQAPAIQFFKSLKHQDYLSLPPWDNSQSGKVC

GPI-GM-CSF (murine GM-CSF fused to the S. cerevisiae Gas1 GPI modification signal sequence, expressed in yeast clone SC-GM-GPI) (from UniProt P01587 18-141; P22146 474-528) (other; the values are: proliferation increase vs soluble GM-CSF)
proliferation of FDC-P1 cells (Biotrak BrdU cell proliferation ELISA), 10 ng GM-CSF equivalent per well: 25%
